Our source for the IC50 (neutralization of pseudovirus infection) values is patent publication US20180099041A1.

Assay [1] addresses gp160 clone 108069_005 Q655R (HIV-1).
In assay [2] the target is gp160 clone 108051_005 Q655R (HIV-1).

As for monoclonal antibody 2G12, the IC50 (neutralization of pseudovirus infection) (in assay [1]; in the assay with 108060_024 R655Q (HIV-1); with 108060_022 Q655R (HIV-1); in assay [2]) was > 20 µg/mL throughout.
“broadly neutralizing, CD4 blocking monoclonal antibody b12”: the IC50 (neutralization of pseudovirus infection) (in assay [1]; with 108060_024 R655Q (HIV-1); in the assay with 108060_022 Q655R (HIV-1); in assay [2]) was > 20 µg/mL in each case.
Take enfuvirtide (peptide): the IC50 (neutralization of pseudovirus infection) in assay [1] stood at 0.011 µg/mL; in the assay with 108060_024 R655Q (HIV-1), 0.13 µg/mL; in the assay with 108060_022 Q655R (HIV-1) it was 0.004 µg/mL; in assay [2] it was 0.036 µg/mL.
For “broadly neutralizing monoclonal antibody 2F5” the same measures were 0.052 µg/mL, 3.43 µg/mL, 0.093 µg/mL and 0.343 µg/mL.
For the substance “broadly neutralizing monoclonal antibody 4E10”, the IC50 (neutralization of pseudovirus infection) is 0.044 µg/mL in assay [1], 6.55 µg/mL with 108060_024 R655Q (HIV-1), 0.156 µg/mL in the assay with 108060_022 Q655R (HIV-1) and 1.31 µg/mL in assay [2].
For “CD4-IgG (from UniProt P01730) (Fc fusion)”, the IC50 (neutralization of pseudovirus infection) in assay [1] is 1.08 µg/mL; in the assay with 108060_024 R655Q (HIV-1), > 20 µg/mL; with 108060_022 Q655R (HIV-1), 0.161 µg/mL; in assay [2], 5.21 µg/mL.
